The experiment has as its system cumulus-oocyte complexes. Description: Study II: oocyte developmental competence after IVM, IVF and embryo culture (cleavage, blastocyst). The format is cell-based, Bovine. The procedure:
Bovine ovaries were collected from local abattoirs and transported to the laboratory in warm saline (30-35° C.). Cumulus-oocyte complexes (COC) were aspirated from antral follicles (2 to 8 mm diameter) using an 18-gauge needle and a 10-ml syringe containing ˜2 ml aspiration media (Hepes-buffered Tissue Cultured Medium-199; TCM-199, ICN Biochemicals, Irvine, Calif., USA) supplemented with 50 μg/ml kanamycin, 0.5 mM sodium pyruvate, 50 μg/ml heparin and 4 mg/ml fatty acid-free bovine serum albumin (FAF-BSA; ICPbio Ltd, Aukland, NZ). Intact COC with compact cumulus vestments greater than five cell layers and evenly pigmented cytoplasm were selected under a dissecting microscope and washed twice in Hepes-buffered TCM-199 and once in Hepes-TCM199 supplemented with 10% fetal calf serum (FCS) (Invitrogen, Carlsbad, Calif.). Base media for oocyte maturation was Bovine VitroMat (Cook Australia, Eight Mile Plain, Qld, Australia), and is a medium based on the ionic composition of bovine follicular fluid and also containing 100 μm glycylglutamine (Glutamax; Gibco Invitrogen, Carlsbad, Calif., USA), 100 μm N-acetyl-1-cysteine, 100 μm 2-mercaptoethylamine, 1% v/v non-essential amino acids (100×; Gibco Invitrogen), 2% v/v essential amino acids (50×; Gibco Invitrogen), 4 mg mL-1 fatty acid-free BSA and 5.6 mm glucose. […] (Puregon, Organon, Oss, Netherlands). Complexes were cultured pre-equilibrated […] drops overlaid with mineral oil and incubated at 39° C. with 5% CO2 in humidified air for 24 hour. […]
Recombinant mouse GDF-9 and recombinant ovine BMP-15 were produced in-house as previously described (Kaivo-Oja et al. (2003) J. Clin. Endocrinol Metab 88:755-762; McNatty et al. (2005) Reproduction 129:473-480) using transfected 293 human embryonic kidney cell lines (293H). Recombinant proteins were partially purified using hydrophobic interaction chromatography (HIC), as recently described (Hickey et al., (2005) Biol Reprod on line), and their concentrations were then estimated by Western blot (Kaivo-Oja et al., 2003 3) J. Clin. Endocrinol Metab 88:755-762). Control conditioned medium (293H) was also produced from untransfected 293H cells and purified by HIC.
All experiments were carried out using frozen semen from the same bull of proven fertility. Briefly, one straw of semen stored in liquid nitrogen was rapidly thawed in a water bath for one minute. The semen sample was layered on top of a discontinuous (45%:90%) Percoll gradient (Amersham Bioscience) and centrifuged at room temperature for 20-25 mins at 700 g. The supernatant was removed and the sperm pellet was washed with […] Bovine Vitro Wash (Cook Australia, Eight Mile Plains, Qld, Australia) and centrifuged for a further 5 minutes at 200 g. spermatozoa were resuspended with TVF medium (Bovine Vitro Fert, Cook Australia), then added to the fertilization media drops (Bovine Vitro Fert, Cook Australia, supplemented with 0.01 mM heparin, 0.2 mM penicillamine and […] hypotaurine) at a final concentration of 1×10^6 spermatozoa/ml. COCs were inseminated at a media density of […] of IVF medium per COCs for 24 h, at 39° C. in 6% CO2 in humidified air.
Cumulus cells were removed by gentle pipetting 23-24 h post insemination and five presumptive zygotes were transferred into 20 μl drops of pre-equilibrated Cook Bovine Cleave medium (modified SOFaa, Cook Australia) and cultured under mineral oil at 38.5° C. in 7% O2, 6% CO2, balance N2, for five days (day 1 to day 5).
On Day 5, embryos were transferred in groups of […] drops of pre-equilibrated Bovine Vitro Blast (Cook Bovine Blast medium; Cook Australia) at 38.5° C. overlaid with mineral oil and cultured to Day 8. Embryos were assessed for quality at Day 8 according to the definitions presented in the Manual of the International Embryo Transfer Society and were performed independently and blinded by an experienced bovine embryologist. […]

Setting [1] is: 1st REP, COC IVM 24 h, 175 ng/ml GDF-9, 10% BMP-15, 10% 293H.

B1: BMP-15: Recombinant ovine BMP-15 produced in-house in transfected 293H cells, partially purified by hydrophobic interaction chromatography; dosed as % v/v (protein, UniProt Q9MZE2 269-393, looked up)
Bone morphogenetic protein 15: QAGSIASEVPGPSREHDGPESNQCSLHPFQVSFQQLGWDHWIIAPHLYTPNYCKGVCPRVLHYGLNSPNHAIIQNLVSELVDQNVPQPSCVPYKYVPISILLIEANGSILYKEYEGMIAQSCTCR
Take B1: the “BLACTOCYST RATE” value came to 58% under setting [1]; 63% (2nd REP); 50% (3rd REP); 50% (4th REP); 55% (AVERAGE, control COC 41.5%). In addition, the “CLEAVAGE RATE” value reads like this: under setting [1], 76%; (2nd REP) 90%; (3rd REP) 80%; (4th REP) 85%; (AVERAGE, control COC 84%) 83%. Besides, under “alone or in combination with GDF9, compared with GDF-9 alone or no supplement”, the “number of oocytes that reached the blastocyst stage post insemination” value was “more effective”.

B2: GDF-9: Recombinant mouse GDF-9 produced in-house in transfected 293H cells, partially purified by HIC (protein, UniProt Q07105 307-441, looked up)
Growth/differentiation factor …: GQKAIRSEAKGPLLTASFNLSEYFKQFLFPQNECELHDFRLSFSQLKWDNWIVAPHRYNPRYCKGDCPRAVRHRYGSPVHTMVQNIIYEKLDPSVPRPSCVPGKYSPLSVLTIEPDGSIAYKEYEDMIATRCTCR
B2: the “BLACTOCYST RATE” value under setting [1] is given as 50%; the “BLACTOCYST RATE” value (2nd REP) is 58%; the “BLACTOCYST RATE” value (3rd REP) was determined as 35%; the “BLACTOCYST RATE” value (4th REP) is recorded as 36%; the “BLACTOCYST RATE” value (AVERAGE, control COC 41.5%) was found to be 45%. Besides, the “CLEAVAGE RATE” value is, setting by setting: under setting [1], 88%; (2nd REP) 92%; (3rd REP) 84%; (4th REP) 83%; (AVERAGE, control COC 84%) 87%.

Source of the values: patent publication US8530235B2, “Medium that supports culture of an oocyte and modulation of granulosa cell apoptosis” (Adelaide Research & Innovation Pty Ltd., priority 2005, dated 2013).
